From paper PMC3542820 come the findings set out here.

The target in this data set is T1, Rfa2-His from WT cells (HT41), dephosphorylated G1 form (Candida albicans, UniProt Q59Z33 1-272).
T1 sequence: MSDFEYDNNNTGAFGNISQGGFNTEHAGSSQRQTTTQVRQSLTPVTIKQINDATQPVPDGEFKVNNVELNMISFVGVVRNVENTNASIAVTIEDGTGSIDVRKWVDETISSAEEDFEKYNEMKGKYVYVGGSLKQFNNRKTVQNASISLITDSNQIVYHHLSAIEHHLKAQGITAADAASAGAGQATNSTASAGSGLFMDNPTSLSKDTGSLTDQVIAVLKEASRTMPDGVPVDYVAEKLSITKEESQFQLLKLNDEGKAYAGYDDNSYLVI
The data set can be described thus: EMSA.

B1: FITC-dsDNA 30 bp (dsDNA)
DNA 1: CCCCTCTCCTTCTTGGCCTCTTCCTTCCCC
DNA 2: GGGGAAGGAAGAGGCCAAGAAGGAGAGGGG
With B1, the binding result is reported as “binds”.
